Results on 2 molecules are retold here after patent US20230093239 (published 2023).

For series [1], the target named is T1, alpha-thrombin (Homo sapiens, UniProt P00734;P00734 P00734:328-363,P00734:364-622). The experiment in a line: negative control on membrane-type surface stress sensor, used as reference for voltage difference; 240 nM thrombin in PBS.
In series [2] the target is T1, alpha-thrombin. The experiment in a line: membrane-type surface stress sensor; voltage difference vs poly T control; 240 nM thrombin in PBS.

Turning to TTTTTTTTTTTTTTTTTTTT (ssDNA) [poly T control], in the series with alpha-thrombin [1], the binding result is recorded as “no binding”.

As for GGTTGGTGTGGTTGGTTTTT (ssDNA) [thrombin aptamer (15-mer with T5 tail)], the binding result with alpha-thrombin [2] is reported as “binds”.
